We go through four molecules from CN111423515A (BETA PHARMA INC, dated 2020).

Experiment [1] has as its target T1, human CD47 on cells (CHO-K1/hCD47; human red blood cells RBC) (human, UniProt Q08722 19-323).
T1 construct: whole, on cells; also called CHO-K1/human CD47; 红细胞
As to the kind of experiment: flow cytometry, RBC mixed 20:1 with Raji, 10 μg/mL. In general terms: Flow cytometry measures light scatter and fluorescence of single cells or particles in a stream.

Experiment [2] concerns the target T2, human CD20 on cells (CHO-K1/CD20) (human, UniProt P11836 1-297).
T2 construct: whole, on cells; also called CHO-K1/hCD20; CHO-K1/human CD20
T2 sequence (looked up): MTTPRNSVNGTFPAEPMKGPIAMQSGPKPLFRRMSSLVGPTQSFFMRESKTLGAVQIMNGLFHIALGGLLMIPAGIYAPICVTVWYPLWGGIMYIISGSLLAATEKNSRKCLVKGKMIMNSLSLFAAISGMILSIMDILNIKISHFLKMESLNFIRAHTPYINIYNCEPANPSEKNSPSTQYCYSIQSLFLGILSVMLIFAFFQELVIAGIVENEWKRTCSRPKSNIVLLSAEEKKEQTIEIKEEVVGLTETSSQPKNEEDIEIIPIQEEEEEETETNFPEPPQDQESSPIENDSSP
As to the kind of experiment: flow cytometry on CHO-K1/CD20 cells.

For experiment [3], the target named is T3, hCD47-his (human, UniProt Q08722 19-139).
T3 construct: Bought protein coated on the ELISA plate; also called Cat#CD7-H5227; not shown: his tag
Kind of experiment: ELISA, hCD47-his coated. On the technique in general: In an ELISA, binding on a coated surface is turned into a signal by an enzyme label.

T1 sequence (Q08722 19-323): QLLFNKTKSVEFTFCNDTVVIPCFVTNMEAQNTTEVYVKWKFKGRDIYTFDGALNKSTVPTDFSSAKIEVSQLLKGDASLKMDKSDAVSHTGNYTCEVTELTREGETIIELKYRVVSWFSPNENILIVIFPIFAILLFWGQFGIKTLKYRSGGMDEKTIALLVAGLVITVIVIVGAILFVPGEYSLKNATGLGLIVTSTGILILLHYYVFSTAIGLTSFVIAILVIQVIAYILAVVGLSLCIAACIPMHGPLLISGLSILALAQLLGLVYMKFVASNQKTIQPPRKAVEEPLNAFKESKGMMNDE
T3 sequence (Q08722 19-139 limits assumed): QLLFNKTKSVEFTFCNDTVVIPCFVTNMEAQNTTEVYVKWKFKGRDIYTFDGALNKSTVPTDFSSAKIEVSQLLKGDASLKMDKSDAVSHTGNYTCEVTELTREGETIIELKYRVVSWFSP

B1: 9020-1RP-1C1 (bispecific antibody)
heavy: not shown
light: QIVLSQSPAILSASPGEKVTMTCRASSSVSYIHWFQQKPGSSPKPWIYATSNLASGVPVRFSGSGSGTSYSLTISRVEAEDAATYYCQQWTSNPPTFGGGTKLEIK
notes: not shown: light chain constant region of the CD20 antibody
As to B1, the binding result in experiment [1] and in experiment [2] was “binds” throughout.

B2: 9020-1RP-1C2 (bispecific antibody)
heavy: not shown
light: QIVLSQSPAILSASPGEKVTMTCRASSSVSYIHWFQQKPGSSPKPWIYATSNLASGVPVRFSGSGSGTSYSLTISRVEAEDAATYYCQQWTSNPPTFGGGTKLEIK
notes: linker changed; not shown: light chain constant region of the CD20 antibody
For B2, the binding result in experiment [1] and in experiment [2] was “binds” throughout.

B3: 重组蛋白CD002 (Fc fusion)
chain: EEELQVIQPDKSVSVAAGESAILHCTVTSLFPVGPIQWFRGAGPARELIYNQRQGPFPRVTTVSETTKRENMDFSISISAITPADAGTYYCVKFRKGSPDTEFKSGAGTELSVRAKPS
notes: Control recombinant protein; the format is not described; not shown: not described
B3: the binding result in experiment [3] is given as “binds”.

B4: 9020-6RP (bispecific antibody)
heavy: QVQLQQPGAELVKPGASVKMSCKASGYTFTSYNMHWVKQTPGRGLEWIGAIYPGNGDTSYNQKFKGKATLTADKSSSTAYMQLSSLTSEDSAVYYCARSTYYGGDWYFNVWGAGTTVTVSA
light: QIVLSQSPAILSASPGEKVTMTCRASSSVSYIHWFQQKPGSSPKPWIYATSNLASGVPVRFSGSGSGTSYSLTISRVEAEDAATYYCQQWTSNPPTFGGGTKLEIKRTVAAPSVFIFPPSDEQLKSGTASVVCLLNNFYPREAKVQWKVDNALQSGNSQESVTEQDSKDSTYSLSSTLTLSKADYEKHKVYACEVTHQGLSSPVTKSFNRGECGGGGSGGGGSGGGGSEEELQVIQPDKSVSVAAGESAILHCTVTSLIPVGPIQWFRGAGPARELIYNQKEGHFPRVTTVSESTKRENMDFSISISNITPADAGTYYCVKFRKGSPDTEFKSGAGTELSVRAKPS
notes: Bispecific light chain co-transfected with the CD20 antibody heavy chain; not shown: IgG1 constant region
With B4, the binding result in experiment [2] is reported as “binds”.
